Data: patent publication US20240123068A1 (KITE PHARMA, published 2024)

B1: CD19 23 scFv (P12) (scFv)
scFv: DIQMTQSPSSLSASVGDRVTITCRASQSIYSYLNWYQQKRGKAPKLLIYDASSLQSGVPSRFSGSGSGTDFTLTISSLQPEDFATYYCQQSYTAPPTFGQGTKVEIKGGGGSGGGGSGGGGSEVQLLESGGGLVQPGGSLRLSCAASGFTFSNYAMSWVRQAPGKGLEWVSAISESGHGTYYADSVKGRFTISRDNSKNTLYLQMNSLRAEDTAVYYCARLDWAGFDVWGQGTLVTVSS
notes: also called 53; clone 53
B2: CD19 10 scFv (P6) (scFv)
scFv: DIQMTQSPSSLSASVGDRVTITCRASQTISRYLNWYQQKPGKAPKLLIYAASSLQSGVPSRFSGSGSGTDFTLTISSLQPEDFATYYCQQSYRPPLTFGQGTKVEIKGGGGSGGGGSGGGGSEVQLLESGGGLVQPGGSLRLSCAASGFTFSSYAMSWVRQAPGKGLEWVSTISAGGHGTYYADSVKGRFTISRDNSKNTLYLQMNSLRAEDTAVYYCARGAGYFDYWGQGTLVTVSS
notes: also called 47; clone 47
B3: CD19 7 scFv (P5) (scFv)
scFv: DIQMTQSPSSLSASVGDRVTITCRASQSISKYLNWYQQKPGKAPKLLIYDASSLQSGVPSRFSGSGSGTDFTLTISSLQPEDFATYYCQQSYTIPLTFGQGTKVEIKGGGGSGGGGSGGGGSQVQLVQSGAEVKKPGSSVKVSCKASGGTFSSYAFSWVRQAPGQGLEWMGGIVPLFGAVEYAQKFQGRVTITADESTSTAYMELSSLRSEDTAVYYCAREKGFYRYFDHWGQGTLVTVSS
notes: also called 46; clone 46
B4: CD19 16 scFv (P10) (scFv)
scFv: QSVLTQPPSVSGAPGQRVTISCTGSSSNIGAGYDVHWYQQLPGTAPKLLIYGNNNRPSGVPDRFSGSKSGTSASLAITGLQAEDEADYYCQSYDVSLGVWVFGGGTKLTVLGGGGSGGGGSGGGGSQLQLQESGPGLVKPSETLSLTCTVSGGSISSPSYYWGWIRQPPGKGLEWIGSIYYTGATYYNPSLKSRVTISVDTSKNQFSLKLSSVTAADTAVYYCARYGPAGVGFDYWGQGTLVTVSS
notes: also called 51; clone 51
B5: CD19 15 scFv (P9) (scFv)
scFv: DIQMTQSPSSLSASVGDRVTITCRASQPIRPYLNWYQQKPGKAPKLLIYDASSLQSGVPSRFSGSGSGTDFTLTISSLQPEDFATYYCQQSYSAPYTFGQGTKVEIKGGGGSGGGGSGGGGSEVQLLESGGGLVQPGGSLRLSCAASGFTFSSYAMSWVRQAPGKGLEWVSVISGGGANTYYADSVKGRFTISRDNSKNTLYLQMNSLRAEDTAVYYCARDWRYFDHWGQGTLVTVSS
notes: also called 50; clone 50
B6: CD19 18 scFv (P11) (scFv)
scFv: QSVLTQPPSVSGAPGQRVTISCTGSSSNIGAGYDVHWYQQLPGTAPKLLIYGTKNRPSGVPDRFSGSKSGTSASLAITGLQAEDEADYYCQSYDVRLKGWVFGGGTKLTVLGGGGSGGGGSGGGGSQLQLQESGPGLVKPSETLSLTCTVSGGSITSSSYYWGWIRQPPGKGLEWIGSIYYTGTTYYNPSLKSRVTISVDTSKNQFSLKLSSVTAADTAVYYCARYVGLSGGFDYWGQGTLVTVSS
notes: also called 52; clone 52
B7: CD19 11 scFv (P7) (scFv)
scFv: DIQMTQSPSSLSASVGDRVTITCRASQSISSYLNWYQQKPGKAPKLLIYAASSLQSGVPSRFSGSGSGTDFTLTISSLQPEDFATYYCQQTGAVPYTFGQGTKVEIKGGGGSGGGGSGGGGSEVQLLESGGGLVQPGGSLRLSCAASGFTFRDYAMSWVRQAPGKGLEWVSAISESGIDTYYADSVKGRFTISRDNSKNTLYLQMNSLRAEDTAVYYCARVAGYDSDSSTYYDYMDVWGQGTLVTVSS
notes: also called 48; clone 48
B8: CD19 14 scFv (P8) (scFv)
scFv: DIQMTQSPSSLSASVGDRVTITCRASQSISNYLNWYQQKPGKAPKLLIYAASSLQSGVPSRFSGSGSGTDFTLTISSLQPEDFATYYCQQAYSAPITFGQGTKVEIKGGGGSGGGGSGGGGSEVQLLESGGGLVQPGGSLRLSCAASGFTFGDYAMSWVRQAPGKGLEWVSAISRGGHGTYYADSVKGRFTISRDNSKNTLYLQMNSLRAEDTAVYYCARLVGYGLDYWGQGTLVTVSS
notes: also called 49; clone 49

Target: T1, Human CD19, wild-type full-length protein expressed on cells (human, UniProt P15391 20-556)
T1 construct: also called WT CD19; CD19 wild type protein
T1 sequence: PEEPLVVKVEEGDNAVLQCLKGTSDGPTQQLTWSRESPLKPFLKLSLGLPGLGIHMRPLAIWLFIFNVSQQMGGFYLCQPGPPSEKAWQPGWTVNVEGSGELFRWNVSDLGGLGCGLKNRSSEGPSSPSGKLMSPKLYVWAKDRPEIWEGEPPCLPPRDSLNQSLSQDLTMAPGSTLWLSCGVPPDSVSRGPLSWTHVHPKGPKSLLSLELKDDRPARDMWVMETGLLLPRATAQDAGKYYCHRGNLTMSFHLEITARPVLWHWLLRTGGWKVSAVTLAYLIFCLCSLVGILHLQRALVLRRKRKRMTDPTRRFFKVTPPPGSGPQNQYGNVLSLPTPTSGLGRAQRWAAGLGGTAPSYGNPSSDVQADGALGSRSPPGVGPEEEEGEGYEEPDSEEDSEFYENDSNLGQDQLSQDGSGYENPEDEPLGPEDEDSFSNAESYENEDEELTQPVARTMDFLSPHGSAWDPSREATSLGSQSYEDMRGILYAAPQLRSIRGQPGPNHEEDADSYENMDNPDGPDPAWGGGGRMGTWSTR
Test: scFv clone screen on NALM6 cells with and without CD19
Description: To ensure that the up to (30) clones could recognize native CD19 expressed on tumor cells, the clones (scFv) were also screened against NALM6 tumor cell line positive (+) CD19 expression (NALM6 cell line⁺ CD19). CD19 knockout Nalm6 cell line (NALM6 cell line⁻ CD1; or CD19KO Nalm6 cell line) were used as a negative control for the selection. CD19KO Nalm6 cell lines used for the screen were engineered CRISPR knocked-out (KO) Nalm6-CD19KO cells. Clones that bound CD19⁺ NALM6 tumor cells, but not CD19-NALM6 tumor cells (CD19KO) were selected (Step 4).

Binder	binding result
B1	binds
B2	binds
B3	binds
B4	binds
B5	binds
B6	binds
B7	binds
B8	binds
